In the nanobody polyreactivity screen of Harvey et al. (2022):

Assay: yeast display, Sf9 membrane polyspecificity reagent, FACS + sequencing; frameworks hold sequencing errors
Procedure, shortened: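 After 36–48 hours of galactose induction, yeast (Saccharomyces cerevisiae BJ5465) displaying a synthetic nanobody library were stained at 4 °C for 1 hour with 10% biotinylated, detergent-solubilized Sf9 membrane reagent. Streptavidin microbeads enriched the stained cells before FACS sorting into low and high (top ~1%) gates on anti-HA and streptavidin fluorescence. Each clone's polyreactivity label reflects its gate of origin.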

Row | Sequence | polyreactivity (PSR sort gate)
1 | QVHLVESGGGLVQAGGSLRLSCAASGSTFLPNAMGWYRQAPGKERELVAAITNGGGTNYADSVKGRFTISRDNAKNTVYLQMYSLKPEDTAVYYCNADSTYFGGHDYWGPGTQVTVSS | low polyreactivity
2 | QVQLEESGGGLVQAGGSLRLSCAASGFIFVANAMGWYIQAPWKERELVAAISRRGGSTYYADSVKGRFTISRDNAKNTVYLQMNSLKPEDTAVYYCNAYRRGLSGYGYWGQGTQVTVSS | high polyreactivity
3 | QVQLVESGGGLVQAGGSLRLICAASGSTFVFYAMGWYRQAPGKERELYATISTGGSTYADSVKGRFTISRDNSKNTVYLQMNSLIPEDTAVYYCNARLRSFTLSDAEYEYWGQGTQETVSS | low polyreactivity
4 | QVQLLESRGGLVQAGGSLRLSCAASGRTIYTYAMGWYRQAPRTVRELVAAITYRGGNTYYADSVKGRFTISRDNAKYTVYLQMNSLKAEDTAVYDCIRRVAYLSGYSYDYWGQGTQVTVSS | high polyreactivity
5 | QVQLVESGGGLVQAGGSLRLSCAASGYIFTYYAMGWYRQAPGKERELVAAISGSDGNTYYADSVKGRFTISRDNAKNTVYLQMTSLKPEDTAVYYCAKSGGLTFRSQRYDYWGQGTQVTVSS | low polyreactivity
6 | QVQLVYTLGGLDQAGGSLRVSCYASGRTFVYYPMGWYRQAPGKERELVAAITRSGGRTYYADSVKGRFTISRDNAKNTVYLQKYSMKPEETAVYYCAARYCDNPYWFDYWGQGTQVTVSS | high polyreactivity
7 | QVQLVESGGGLVQAGGSLRLSCAASGLTFKTYAMGWYRQAPGKERELVAAISRSGGSTSYADSVKGRFTISRDNAKNTVYLQLNSLIPEDTEVYYCAAKTYEPRKYDYWGQGTQVTVSS | high polyreactivity
8 | QVQLVESGGGLVQAGGSLRLSCSASGRIFRINAMGWYRQAPGKDRELVASISRRGGNTYYADSVKGRFTISRDNAKNTVYLQMNSLKPEDTAVYYCAADVHTPALYTYAAGDYWGQGTQVTVSS | low polyreactivity
9 | QVQLVESGGGLVQAGGSLRLSCAASGRTFGRYTMGWYRQAPGKERELVADITSGWSTYADSVKGRFTISRDNAKNSVYLQMNSLKPEDTAVYYCNADRTYPEPAEYYYWGQGTQVTVSS | low polyreactivity
10 | QVQLVESGGGLVQAGGSLRLSCAASGSIFDPNAMGWYRQAPGKERELVAAITSGGGSTYYADSVKGRFTISRDNAKNTVYLEMNSLKPEDTAVYYCNKVFVLPYKFVAWFDYWGQGTQVTVSS | low polyreactivity
11 | QVQLVESGGGLVQAGGSLRLSCAASGRTFRSYAMGWYRQAPGKERELVAAISRRGGTTYYADSVKGRFTISRDNAKNTVYLQMNSLKPEDTAVYYCAATSYTYVLSPYRGDYWGQGTQVTVSS | high polyreactivity
12 | QVQLVESGGGLVQAGGSLRLSCAASGSIFVNYAMGWYRQAPGKERELVAAITSRGTRTYYADSVKGRFTISRDNAKNTVYLQMNSLKPEDTAVYYCAAKQVSRGVAAYDYWGQGTQVTVSS | high polyreactivity
13 | QVQLVESGGGLVQAGGSLRLSCAASGSIFWSNDMGWYRQAPGKERELVAAITITGDTTYYADSVKGRFTISRDNAKNTVYLQMNSLKPEDTAVYYCAAVEVRRVADYGFCLLDYWGQGTQVTVSS | high polyreactivity
14 | QVQLVESGGGLVQAGGSLRLSCAASGSTFRYYAMGWYRQAPGKERELVAAISRSGGRTYYADSVKGRYTISRDYAKKTVYLQMNSLKPEDTAVYYCAVDIVSIRGYTYGYWGQGTQVTVSS | high polyreactivity
15 | QVQLVESGGGLVQAGGSLRLSCAASGLIFYTYAMGWYRQAPGKERALVADINRSDGSTYYADSVKGRFTISRDNAKNTVYLQMNILKPEDTAVYYCAVVGPYYTRFGGRYYYWGQGTQVTVSS | low polyreactivity
16 | QVQLVESGGGLVQAGGSLRLSCSASGFIFFRYSMGWYIQAPGKERELVAAINSSGDSTYADSVKGRFTISRDNAKNTFYLQMNSLKPEDTAVYYCATGGRTEIWYPTLDYWGQGTQVTVSS | low polyreactivity
17 | QVQLQESGGGLVQAGGSLRLSCAASGTISPLPAMGWYRQAPGKEREFVAGIDTGAITNYADSVKGRFTISRDNAKNTVYLQMNSLIPEDTAVYYCAVFPAAYDYYERYYTYWGQGTQVTVSS | low polyreactivity
18 | QVQLVESGGGLVQARGSLRLSCAASAFIIPVYTIGWYRQAPGKERELVAAITQIGGSTHYADSVKGRFTISRANAKNTVYLQMNSLKPEDTAVYYCAVDYDSYWYGTYVNEYDYWGLGTQVTVSS | low polyreactivity
19 | QVQLVESGGGLVQAGGSLRLSCAASGPILGQYAMGWYRQAPGKDRELVAAITYSGGRTYYADSVKGRFTLSRDNAKNTVYLQMNSLKPEDTAVYYCAARGRASVERRGGYYYWGQGTQVTVSS | high polyreactivity
20 | QVQHEDSGGGLVQAGGSHRVSCAASGSTFAYNAMGGSRKAPGKERELVATISTDGSTYADSVKGRFTISRDNAQNTVYLQMNSLKPEDTAVYYCNADGHPSDPGYDYWGQGTQVTVSS | low polyreactivity
21 | QVQLVESGGGLVQAGGSLRLSCAASGRILNYNAMGWYRQAPGKERELVAAITSSGGSTYYADSVKGRFTISRDNAKNTVYLQMNSLKPEDTAVYYCNALITYSSDYWGQGTQVTVSS | low polyreactivity
22 | QVKLVESGGGLVQAGGSLRLSCAASGSIISGYAMGWYRQAPGKERELVAAISSSGGRTYYADSVKGRFTISRDNAKNTVYLQMYSLKPEDTAVYYCATVWSIVRGSYYNRYDYWGQGTQVTVSS | high polyreactivity
